Results on 69 sequences are retold here after the domain aggregation screens of Martell et al. (2025).

The nature of this data set: soluble fraction after stress (log2 fold change); higher = more stays soluble; pooled small domains, quantitative proteomics. The settings on record: stress: 50 degC. An outline of the steps: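 Quantitative proteomics served as the high-throughput read-out for pooled custom libraries of small protein domains. Each was stressed at 50°C. Aggregation propensity is expressed as the base-two log fold change in soluble protein after stress. A higher value means a larger share of the protein remains in solution.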
With “HMPNPALESARPAFEAFLSRFSDGEAMRGPAWGLWSLLHRKGNAPTASHAAGRDGMGVLAFLRHWQWG”, the “soluble fraction (log2)” value is -0.479.
As to “HMPPDLSEAIQKRIEGKTDEALEILRKLYNEYPESTEIITMLGRTLLDAEEYALAAFRLEQALDLGG”, the “soluble fraction (log2)” value is -0.569.
For the sequence “HMPPDVIENIFKNDANKIIDLYNMAPRGQKETIVEMIKNKRLQGINVDANVLVKLGELTGIDFVN”, the “soluble fraction (log2)” value worked out at 0.0803.
On to “HMPPLVLRGVVMGADGARLAILAQGEAGAALGIGETWKEYTLRSVTDQSATLEHRSGTITLTR”, for which the “soluble fraction (log2)” value was -0.117.
On to “HMPPNPELGKKLLKLRKEFKMTQDDVANILGMSRTSFSKYENGIANPPLQVMRKLASIYNVGLEYLI”, for which the “soluble fraction (log2)” value is -1.04.
For “HMPQEMIEILATPNGWLRVRQGPGTNYPEITKVNSGEEFPLLEEKDSWFKIRIEEGQEGWISSQYAQKEE”, the “soluble fraction (log2)” value was -0.0402.
For “HMPQGFEDLTEREREVLTLIAEGRTNQEIADALVISIKTVNRHRENIMAKLNLHSRVELVRYAIAQGLI”, the “soluble fraction (log2)” value is -0.474.
Regarding “HMPQNLQDQLFELILSRYPRRADAVEDLANILHLGKDPVYRRLRGDTFLSPLEISTLALHFRISLDALIV”, the “soluble fraction (log2)” value was -2.55.
Turning to “HMPQPEIEIAAVVPYSAGALLSRIHDDGELLAPVEYRGEGVFVHARVPADIEAAMRRGGMLSPAET”, the “soluble fraction (log2)” value is 0.0913.
Turning to “HMPQQVFKREDLQKWGLTGQADSRKRREKLGQLLGIGYGNGKQLIHRLNMFQVDRATFEQAIKQINQEEDH”, the “soluble fraction (log2)” value is -0.423.
Regarding “HMPQTNIYPNPAFDKLFVSNLENETNFKIMDLFGRTIINSKTKGEISISELKSGIYIIEINNFRQKFVK”, the “soluble fraction (log2)” value is -0.839.
As for “HMPQVALAIDEMKRELASPDIVKTLLATTFKGLSEVNMRQAMLDGMIQGHTIADFFKKDVYAIPFGSGYSL”, the “soluble fraction (log2)” value came to 0.0921.
As for “HMPRPFPELTTREHDILALIARGWSNGRIADHLSLSGKTVSNYVSNILGKLQVTARAEAAERAREAGMGQ”, the “soluble fraction (log2)” value was -0.00905.
As for “HMPRRSYLDARKKLLGMLNSPDFNSGDQIPAERELSEVLGISRVTVRKIITELIDEGVLERRGNQGTWLVD”, the “soluble fraction (log2)” value is -0.378.
To “HMPRSREVHVEPGMVLEDVTTGFVGAVIRTEKSAGIYVIELEDRRGRRRSFPLGGGFWLDGRPIIALPPLP” belongs -1.19.
In the case of “HMPSLAVYPNPVKDILNIATDKPVHSIRIYNVYGSEVLRAADTNRIDVSHLPAGVYMVSADGKVTRIIK”, the “soluble fraction (log2)” value is -0.462.
In the case of “HMPSLGGLLALLKRNRKPDAMEALDRLISKEDRPETAEALENIREKVRNMQMREAEGLLLALMEP”, the “soluble fraction (log2)” value was -0.0372.
Take “HMPSLILADEPTGNLDSRNSSEVIALLKNASKRYAQTIIMITHNRSIAQSADRVLQVSDGVLTDMG”: the “soluble fraction (log2)” value is 0.0494.
Take “HMPSLNDRPDDVLYLFSYFLQSFSHRQVSLPKILKKALIQHDWWGNIRELHSVALRYYIFGDTLNGAYDSL”: the “soluble fraction (log2)” value was -1.3.
Take “HMPSLSREREAAILEMIERRPSTAEDVASGLGLAVNEVIKLLDGTALRGSVETFQSGEEIYYTRKR”: the “soluble fraction (log2)” value came to 0.144.
To “HMPSNVKIPDVTGKTVAQARSAIEAAGLKVGKEKDEYSDSAKKDSVIRTNPQAGTQRREGSTVDLIVS” belongs 0.122; to “HMPSPFYIMDEVEAALDDTNLGRLITLFEELRDSSQLIVITHQKKTMEIADALYGVTMRGDGITTVVSQRL”, -0.343.
“HMPSQEQSDKNAAMAFLPVIVKNALNGKGLKISDDWKAAVNTALAQYPLVNKFFNADSPEVTELVMGL”: the “soluble fraction (log2)” value is -0.0489.
As to “HMPSQLPLAFARRHGVLLRGFSNGLAQLTVRPEVSTLSLAETRRHLGVPLALEKVTTERFDQLLREAYEA”, the “soluble fraction (log2)” value is -0.37.
To “HMPSYYKELQNYSPENPVVKKRKVHPDVVNAIKYLAEITDGNPMLIKAYAQMILAHVFTTMPLIDKSV” belongs -0.128; to “HMPTEAIVLQQIQIRQSPSGNSKSLQQILPGAKIKITSESSVKGWKQVSLDGGQKGWIPTAAIGL”, -0.0262.
Regarding “HMPTELVYTVPASAEGLRLDHFLVQHVPHMTRALATELTGAGGVRVNGRRAKKGDRLPSGAEVRLER”, the “soluble fraction (log2)” value came out at 0.178.
With “HMPTFAEKLHEVRKARDFTQDQLAKEMNVSRQTISHWENGRAVPDIDTIKHLSQVLDYNFLV”, the “soluble fraction (log2)” value worked out at 0.124.
To “HMPTITIQRGIILSSTTKGFIDELSHSQIKNAIVERLGEHHVMIHESQLDAVIKYAQKKEAVINIYL” belongs -0.0325.
On to “HMPTMEQTYIGRTMIAEEDMGKNSKIKVSGIYWTAYNKGRVIKKGEEYKITGIEGNKLIVSSK”, for which the “soluble fraction (log2)” value is -0.0359.
For “HMPTNSDRLIGSDGVVSSKIDNLQGTGKVYISGLTWSARTIDGSEAEEGDIVTVEKIEGATLYVTKR”, the “soluble fraction (log2)” value was 0.0599.
To “HMPTNVYSIIGKEGIVLESIDNLNSTGKVKVNGELWSAISDSNIEKGETIKVLSVNGVKLKVEKVN” belongs 0.0885.
For “HMPTPASGSSGYINATNVNFRTGPATSYKSISKLAKNTAVTILGTSGNWYKVTVGSLGKNGYVFATYVTVS”, the “soluble fraction (log2)” value is -0.556.
As for “HMPTPLTPREHEIANLIAQGLSNREIADELVISPATAARHVANILAKLGFSSRTQVASWATRHD”, the “soluble fraction (log2)” value is -0.179.
In the case of “HMPTSLPGIDIDEKNIVSSTGALSFKKVPKKLAIIGGGYIGLEMGSVWSRLGSSVTVIEYLNFITPG” it was -0.00687.
To “HMPTTLEGIEKYLSSGLIKGIGPHLAGKLVEAFGTRVFEVVEHQPERLRTVGGIGRTRAESITSAWRDQ” belongs -0.168; to “HMPTTNIRAFRLREADPESVKEALSMVMPKTSIYVDARTKSVLVVGLLDELARAAEIVALIDQP”, -0.79.
As for “HMPVFSAEQVAKAEADVQKVANKVQEAGADVEKLTTIHNWLLAREKYMPPDLFSTANQIIATAFQKAG”, the “soluble fraction (log2)” value is 0.112.
Take “HMPVGSIGERLKALRLKAGLTQEEVGQHVHISKQTLYKYENGIVTNIPADKIELLATIYSVTPAYIMGWA”: the “soluble fraction (log2)” value was -0.875.
For “HMPVQPMDPSIEHISALTGKQFQAFPGQDHRAHMTAHLNFMSTNIVRNNPAVMGAIQKNILEHISLMAQEQ”, the “soluble fraction (log2)” value turned out to be 0.153.
To “HMPVSLHEQIQQARIRAEQNVEGISLLLQVNPKYYEQIEAGDVIPDQDLLKRISSLFGWNYHEMLHREKSS” belongs -0.239; to “HMPVSTLLGDNLRRLRTAKGYTQEAVADAARISVAAYRNYETGRAIPKVNTLLAIARALGVSLNDLVTE”, -0.104.
Consider “HMPVTAQFDFSKVLAGRTLKDGEFSFVLKDKNGTVLQTKTNDASGKVAFDALIYKNNEVGEHKYTVEEVI”, for which the “soluble fraction (log2)” value turned out to be 0.208.
On to “HMPVVKIPFILTEGPSSITKVIEIDADEILELKDVFQEDDKLWSINQIEMNDGRYVKHSDASLIVRASALR”, for which the “soluble fraction (log2)” value amounted to 0.066.
With “HMPYHSEAWHKVMKSHWLTLSREEAYMHEGRTGASTINIVFQRELGREATQEEIESIYQEKSVLFNSYP”, the “soluble fraction (log2)” value is -1.46.
For the sequence “HMPYLVNGFILEVQSDDNNPVGTLKRRYAVAKNKQGVILLEGEKSFSSNDQILINELKFYIQSNDLKA”, the “soluble fraction (log2)” value was -2.43.
For the sequence “HMPYSKIALQISHLLKSHGVPLSNKQIYEKLINDFQLSINYSNLTNNILPRMNSDSSINVEKVTRGYWQY”, the “soluble fraction (log2)” value was -0.634.
As for “HMQADKYKSYTATDFLKDKDFLRWQLFNGEEDMLFWGRVIEEYPALRSRVEEGIVLYKDNIR”, the “soluble fraction (log2)” value is -0.981.
In the case of “HMQADTATITGNGVNMRSGPGTNYQIIDTIPKGTVAEVLSQQDGWVKIYSARISGWVSASYVEIKQT”, the “soluble fraction (log2)” value was -0.356.
Regarding “HMQAGNAVEQYPTIGRLEEVTLGRSQPGAPIGERLSTLETVVFKRNFNDDSLFDRTERLKKTILGG”, the “soluble fraction (log2)” value turned out to be 0.0575.
In the case of “HMQAKQVAIPDVANYSVTDAIKKLQDAGFIVSDEQREEANETVSEGKVSRTSPAAGSIRKEGTEIILYKSL” it was 0.198; in that of “HMQALDETTVSRIRQKAAARNLLLKVLAGQLGVARPTLSNVLARREAPSAALAARIRAFLDSP”, -0.894.
To “HMQALTLVGQDAKDAKAALDAVDIQPAKTETDRYIYVLTEQQAQELGRTVDALYGVEGSLTLILEV” belongs 0.0301; to “HMQAQQYYMLLMNKATSALKIEALGANSNKAHQSFGTKTAGGSAVYWGILFNSNGKIYKIVG”, -2.96.
On to “HMQASIPQSQKDALAKELQALPPHGRNRVLSTFRQQFNISSEKISEFITTPEHLSFIRSKIAEVESDS”, for which the “soluble fraction (log2)” value was determined as 0.0722.
For the sequence “HMQDENAVTYLLEIKNADANDIASVLKTLKSPDADVVVYKTLNMIIFTGQGSEINGLVKVARQLDRK”, the “soluble fraction (log2)” value was -0.417.
As to “HMQDGVNLENIEQKLSTLGVGKAQYFLQNVGGNKFNAYMALNTDGVEGYQKGSDTLIEIKNVE”, the “soluble fraction (log2)” value turned out to be 0.11.
“HMQDKIWVVDETQLYPKLIEAMSEGKAVIHDGVAYWAEGSGKTGVIQHLPFKETTVQNVEEAIKLAQ”: the “soluble fraction (log2)” value came out at 0.169.
For the sequence “HMQDKLLRKKEVLEMVSITNSTMYRMIGSGQFPRPIRLDNANINSGVRWKLSEINTFIEQRF”, the “soluble fraction (log2)” value was -0.409.
In the case of “HMQDLAKRWVEEFGDLLYKYTLPRVSDSGIAKDLVQETFLAAWRNIDNFKGEASEKNWLFTILKNKIIDH” it was -0.213.
“HMQDLTAQQQAILSFLKEHPKATRKEISENIPNITEDNIRYNLSQLQELGFVKSMGDSFIRIAI”: the “soluble fraction (log2)” value was 0.0658.
For the sequence “HMQDNDLKNQIENVLRTYPDNVFTVEKIADVLRSHGSAAFKLIVQELASLERDKVAVVTEDGKFQLNPD”, the “soluble fraction (log2)” value was determined as 0.125.
For “HMQDPTAVISRVLEERKHQPGALLPILHGIQDALGYVPREAVAQIAQALNLSRAEIHGVVSFYHHFR”, the “soluble fraction (log2)” value is -0.547.
As to “HMQDPVWVDWLGENDWFQKDPKRRGLANGYSEILRAEQPELVGRPFLDEVTRRVQADFPELFG”, the “soluble fraction (log2)” value is -0.335.
To “HMQDTRSHARKMLAAIEALLEGRSGSDIQAYTIHNRSITKMTVPELVKWRSYYQQQVRSEDAAASLA” belongs -0.129; to “HMQDTYLYPVQHNGKVRLQVELPAKGLPEDLVRLALAHPKVVEWLNGRIPTKTIAVPGRIINMVLPNQ”, -0.134.
Take “HMQDVWEPFLAKGYVFADGMLTKLIHKRGDVYKTQEIGSDKIIYVIKDGDTFAHGKTVKAAMLDLAFKKS”: the “soluble fraction (log2)” value was -1.29.
For the sequence “HMQDYISAEEAKSAALSASQVDSAGAAFSAAELGEKNGIPYYEVAFTADGLEYRYAIDAQTGTVIESSSSG”, the “soluble fraction (log2)” value is 0.0366.
HMQEDKVRKLTEMGFAEDQAREALRKHDWDETMALNSL: the “soluble fraction (log2)” value was 0.199.
